{"source": "patent US20190315845A1", "about": "(ANNEXON, published 2019)", "binders": {"B1": {"name": "chimeric M1 antibody (antibody, human IgG4)", "heavy": "not shown", "light": "DVQITQSPSYLAASPGETITINCRASKSINKYLAWYQEKPGKTNKLLIYSGSTLQSGIPSRFSGSGSGTDFTLTISSLEPEDFAMYYCQQHNEYPLTFGAGTKLELK", "notes": "Murine M1 V regions with human IgG4 (S241P L248E) and human kappa constant regions, expressed in NS0; also called 3E2; not shown: human kappa light chain constant region"}}, "key": {"[1]": {"molecular_target": "T1, human C1q (human, UniProt P02745 23-245; P02746 28-253; P02747 29-245)", "T1 construct": "Purified human C1q protein (plate-coated in ELISA, ligand or analyte in SPR, in human serum in CH50); also called hC1q; complement factor C1q", "T1 sequence (P02745 23-245 limits assumed, chain 1 of 3)": "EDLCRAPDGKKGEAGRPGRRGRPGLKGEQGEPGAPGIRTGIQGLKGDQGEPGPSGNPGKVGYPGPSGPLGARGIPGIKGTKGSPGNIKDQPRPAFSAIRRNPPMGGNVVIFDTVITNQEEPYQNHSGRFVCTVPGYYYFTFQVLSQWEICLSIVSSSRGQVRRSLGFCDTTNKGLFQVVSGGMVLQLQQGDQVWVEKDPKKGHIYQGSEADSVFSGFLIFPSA", "T1 sequence (P02746 28-253 limits assumed, chain 2 of 3)": "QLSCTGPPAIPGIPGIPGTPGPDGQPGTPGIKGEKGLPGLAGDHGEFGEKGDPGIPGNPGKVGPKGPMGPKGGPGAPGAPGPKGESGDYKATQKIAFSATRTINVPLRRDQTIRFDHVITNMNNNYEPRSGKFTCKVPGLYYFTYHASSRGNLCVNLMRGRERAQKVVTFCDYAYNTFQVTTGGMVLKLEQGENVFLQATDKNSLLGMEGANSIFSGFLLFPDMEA", "T1 sequence (P02747 29-245 limits assumed, chain 3 of 3)": "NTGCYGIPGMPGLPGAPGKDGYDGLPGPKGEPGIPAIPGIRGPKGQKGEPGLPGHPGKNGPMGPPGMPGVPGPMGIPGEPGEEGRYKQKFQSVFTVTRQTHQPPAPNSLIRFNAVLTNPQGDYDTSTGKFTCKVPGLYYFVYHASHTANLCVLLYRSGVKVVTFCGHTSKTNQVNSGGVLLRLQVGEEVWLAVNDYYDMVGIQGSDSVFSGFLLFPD", "experiment": "competition ELISA on plate-bound human C1q against biotinylated mouse M1 antibody (0.02 µg/ml); bound biotin-M1 read as OD450", "excerpt": "(§1) FIG. 4A, FIG. 4B, FIG. 4C, and FIG. 4D depicts competition ELISA assays for human C1q. A dilution series of purified humanized anti-C1q antibodies were competed against a fixed concentration of biotinylated monoclonal antibody M1 for binding to human C1q. Bound biotinylated M1 antibody was detected using streptavidin-peroxidase conjugate and TMB substrate. FIG. 4A depicts the results with the humanized antibodies VH1/Vκ1, VH1/Vκ2, and VH1/Vκ3. FIG. 4B depicts the results with the humanized antibodies VH1/Vκ4, VH2/Vκ1, VH2/Vκ2, VH2/Vκ3, and VH2/Vκ4. FIG. 4C depicts the results with the humanized antibodies VH3/Vκ1, VH3/Vκ2, VH3/Vκ3, and VH3/Vκ4. FIG. 4D depicts the results with the humanized antibodies VH4/Vκ1, VH4/Vκ2, […], and VH4/Vκ4.\n(§2) The binding of humanized M1 variants to human C1q was analyzed by competition ELISA. A three-fold dilution series of test antibody (5 μg/ml to 0.002 μg/ml) was premixed with a constant concentration of biotinylated mouse M1 antibody (0.02 μg/ml, final concentration) before incubating for 1 hour at 37° C. with shaking on plates pre-coated with human C1q at 1.0 μg/ml. The binding of mouse M1 antibody was detected with streptavidin-peroxidase conjugate (Sigma-Aldrich cat. no. 55512) and TMB (3,3′,5,5′-tetramethylbenzidine) substrate (Thermo Scientific cat. no. 34029). The reaction was stopped with 1M HCl, absorbance read at 450 nm on a Dynex Technologies MRX TC II plate reader and the binding curves plotted."}, "[2]": {"molecular_target": "T2, mouse C1q (mouse, UniProt P98086 23-245; P14106 26-253; Q02105 30-246)", "T2 construct": "Purified mouse C1q protein; also called mC1q", "T2 sequence (P98086 23-245 limits assumed, chain 1 of 3)": "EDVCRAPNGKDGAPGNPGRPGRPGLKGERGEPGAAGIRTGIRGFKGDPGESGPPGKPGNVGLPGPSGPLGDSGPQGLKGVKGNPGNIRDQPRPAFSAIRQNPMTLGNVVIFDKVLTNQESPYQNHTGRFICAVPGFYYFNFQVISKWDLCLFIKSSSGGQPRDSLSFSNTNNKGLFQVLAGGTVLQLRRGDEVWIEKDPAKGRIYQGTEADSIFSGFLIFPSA", "T2 sequence (P14106 26-253 limits assumed, chain 2 of 3)": "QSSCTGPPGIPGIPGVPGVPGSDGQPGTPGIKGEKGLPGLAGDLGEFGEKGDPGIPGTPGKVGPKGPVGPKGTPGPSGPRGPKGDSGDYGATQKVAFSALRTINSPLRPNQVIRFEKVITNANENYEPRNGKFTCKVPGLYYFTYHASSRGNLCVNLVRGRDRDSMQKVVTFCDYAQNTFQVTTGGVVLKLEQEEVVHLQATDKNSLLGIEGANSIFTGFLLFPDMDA", "T2 sequence (Q02105 30-246 limits assumed, chain 3 of 3)": "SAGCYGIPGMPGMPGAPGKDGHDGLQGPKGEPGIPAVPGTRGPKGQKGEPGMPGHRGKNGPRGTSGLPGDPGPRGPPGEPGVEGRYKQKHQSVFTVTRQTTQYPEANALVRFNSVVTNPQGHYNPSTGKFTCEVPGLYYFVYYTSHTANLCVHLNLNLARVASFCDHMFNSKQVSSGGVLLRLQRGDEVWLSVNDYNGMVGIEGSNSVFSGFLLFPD", "experiment": "competition ELISA, plate-coated mouse C1q; competitor biotinylated chimeric M1 (0.03 µg/ml); IC50 normalised to chimeric M1 (reference itself)", "procedure": "(§3) The binding of humanized M1 variants to mouse C1q was analyzed by competition ELISA on four selected antibodies, VH1/Vκ1, VH3/Vκ1, VH3/Vκ4 and VH4/Vκ3. An irrelevant IgG4 (S241P L248E) antibody was also included as a binding control. A three-fold dilution series of test antibody (100 μg/ml to 0.046 μg/ml) was premixed with a constant concentration of biotinylated chimeric M1 antibody (0.03 μg/ml, final concentration) before incubating for 1 hour at 37° C. with shaking on plates pre-coated with mouse C1q at 5.0 μg/ml. The binding of chimeric M1 antibody was detected with streptavidin-peroxidase conjugate (Sigma-Aldrich cat. no. S5512) and TMB substrate (Thermo Scientific cat. no. 34029). The reaction was stopped with 1M HCl, absorbance read at 450 nm on a Dynex Technologies MRX TC II plate reader and the binding curves plotted.\n(§4) The binding curves were used to calculate IC₅₀ values for each antibody normalized to the IC₅₀ of chimeric M1 (Table 2)."}, "[3]": {"molecular_target": "T1, human C1q", "experiment": "competition ELISA on plate-bound human C1q against biotinylated mouse M1 antibody (0.02 µg/ml); bound biotin-M1 read as OD450", "excerpt": "as §1, §2", "remark": "listed apart in the source"}, "[4]": {"molecular_target": "T1, human C1q", "experiment": "competition ELISA, plate-coated human C1q; competitor biotinylated mouse M1 (0.02 µg/ml); IC50 normalised to chimeric M1 (reference itself)", "procedure": "as §2\nThe binding curves were used to calculate IC₅₀ values (concentration of test antibody that inhibits labelled competitor binding by 50%) for each antibody normalized to the IC₅₀ of chimeric M1 and antibody yields from NS0 transfectants were also compared (Table 1)."}, "[5]": {"molecular_target": "T1, human C1q", "experiment": "competition ELISA on plate-bound human C1q against biotinylated mouse M1 antibody (0.02 µg/ml); bound biotin-M1 read as OD450", "excerpt": "as §1, §2", "remark": "listed apart in the source"}, "[6]": {"molecular_target": "T1, human C1q", "experiment": "competition ELISA on plate-bound human C1q against biotinylated mouse M1 antibody (0.02 µg/ml); bound biotin-M1 read as OD450", "excerpt": "as §1, §2", "remark": "listed apart in the source"}, "[7]": {"molecular_target": "T2, mouse C1q", "experiment": "competition ELISA on plate-bound mouse C1q against biotinylated chimeric M1 antibody (0.03 µg/ml); bound biotin-chimeric M1 read as OD450", "procedure": "as §3, §4"}}, "note": "Where two headings read alike, the source gives them in different places."}
{"binder": "B1", "values": [{"measurement": "IC50 (read off the curve)", "setting": "[1]", "value": "~0.3", "unit": "µg/mL"}, {"measurement": "Relative IC50", "setting": "[2]", "value": "1 ratio to chimeric M1"}, {"measurement": "IC50 (read off the curve)", "setting": "[3]", "value": "~0.3", "unit": "µg/mL"}, {"measurement": "Relative IC50", "setting": "[4]", "value": "1 ratio to chimeric M1"}, {"measurement": "IC50 (read off the curve)", "setting": "[5]", "value": "~0.3", "unit": "µg/mL"}, {"measurement": "IC50 (read off the curve)", "setting": "[6]", "value": "~0.3", "unit": "µg/mL"}, {"measurement": "IC50 (read off the curve)", "setting": "[7]", "value": "~3", "unit": "µg/mL"}]}
